Assay: Area under the curve (AUC) and increase ratio (ER) of FD-4 in plasma after oral administration to Wistar rats
Procedure: Next, FD-4 was orally administered to Wistar rats using an oral sonde so that the dosage was 0.3 mg/kg. After the administration of the sample, blood was collected six times in total until six hours after the administration of the sample, and plasma was fractionated.
It is noted that “AUCt” is AUC (ng·h/mL) of the test preparation, and “dosage t” is dosage (mg/kg) of the test preparation (target data of the test preparation obtained in the above 2).

## fluorescein isothiocyanate-dextran 4 [Comparative Example 4]
Wistar rats, FD-4 dosage 0.3 mg/kg, up to 6 hr, linear trapezoidal method
  AUC: 24.3 ng·h/mL
rat, FD-4 dosage 0.3 mg/kg
  AUCs (reference data of standard preparation): 24.3 ng·h/mL
rat, FD-4 dosage 5.0 mg/kg
  AUC: 390.5 ng·h/mL
